Measured values reported in US20240117073A1, “METHODS OF TREATING NEOPLASTIC ASTROCYTOMA” (Ludwig Institute for Cancer Research Ltd., priority 2009, published 2024).
Values joined by “and” are separate entries in the source; they are usually repeats but may differ in a detail not shown here. Equal values may be shown once. Marks after values point to notes of the source that are not given here.

Experiments:
[1] = target: T1, biotinylated de2-7 specific peptide (Homo sapiens, UniProt P00533, DELINS30-297G); assay: ELISA on de2-7 peptide; format: binding
T1 construct: purchased Auspep, Melbourne, Australia; host or cells: synthetic (Fmoc chemistry)
Excerpt: In the second assay, the biotinylated de2-7 specific peptide (Biotin-[…] (SEQ ID NO:5)) was bound to ELISA plates precoated with streptavidin (Pierce, Rockford, Illinois). Antibodies were bound and detected as in the first assay.

junction peptide = target: T2, junction peptide (Homo sapiens, UniProt P00533, DELINS30-297G); assay: dot-blot immune stain; format: binding
T2 construct: purchased Biosource, Camarillo, CA; host or cells: synthetic
Procedure: Dot-blot immune stain experiments were also performed. Serial dilutions of peptide were spotted in 0.5 μl onto a PVDF or nitrocellulose membranes. […] Control antibodies were also negative for peptide binding.

wtEGFR = target: T3, wtEGFR (Homo sapiens, UniProt P00533); assay: immunoblotting of cell lysates; format: binding
T3 construct: host or cells: cell lysates

U87MG.wtEGFR xenografts = assay: established xenograft model; format: in vivo, nude mice; conditions: day control animals were sacrificed; 1 mg injections
Procedure: Tumor cells (3×10^6) in […] of PBS were inoculated subcutaneously into both flanks of 4-6 week old female nude mice (Animal Research Centre, Western Australia, Australia). […] Treatment was continued for a total of 6 doses, 3 times per week for 2 weeks. In the established model, treatment was started when tumors had reached a mean volume of 65±6.42 mm^3 (U87MG.Δ2-7), 84±9.07 mm^3 (U87MG), 73±7.5 mm^3 (U87MG.wtEGFR) or 201±19.09 mm^3 (A431 tumors). Tumor volume in mm^3 was determined using the formula (length×width^2)/2, where length was the longest axis and width the measurement at right angles to the length (Clark et al. (2000) Therapeutic efficacy of anti-Lewis (y) humanized 3S 193 radioimmunotherapy in a breast cancer model: enhanced activity when combined with Taxol chemotherapy. Clin. Cancer Res. 6, 3621-3628). Data was expressed as mean tumor volume±S.E. for each treatment group. Statistical analysis was performed at given time points using Student's t-test. Animals were euthanized when the xenografts reached an approximate volume of 1.5 cm^3 and the tumors excised for histological examination. This research project was approved by the Animal Ethics Committee of the Austin and Repatriation Medical Centre. […]

normal tissues = assay: immunohistochemistry of normal tissue; design: species or system human
Procedure: (§1) Immunohistochemical analysis was performed using […] sections of fresh frozen tissue applied to histology slides and fixed for 10 minutes in cold acetone. Bound primary antibody was detected with biotinylated horse anti-mouse antibody followed by an avidin-biotin-complex reaction. Diaminobenzidine tetra hydrochloride (DAB) was used as chromogen. The extent of the immunohistochemical reactivity in tissues was estimated by light microscopy and graded according to the number of immunoreactive cells in 25% increments as follows: • Focal=less than 5% • +=5-25% • ++=25-50% • +++=50-75% • ++++=>75%
There was some variable staining present in tonsils with mAb806 that was restricted to the basal cell layer of the epidermis and mucosal squamous cells of the epithelium. In placenta, occasional immunostaining of the trophoblast epithelium was observed. […] All tissues were positive for the wtEGFR as evidenced by the universal staining seen with the 528 antibody (Table 3).

[2] = test system: panel of 12 different malignancies; assay: immunohistochemistry of tumor panel; design: species or system human
Procedure: as §1
The extent of de2-7 EGFR in other tumor types was examined using a panel of 12 different malignancies. […] This staining was strongly dependent on antibody concentration used and was considered nonspecific background reactivity.

[3] = test system: U87MG.DK brain xenografts; assay: systemic treatment of intracranial xenografts; design: species or system nude mice; conditions: mouse, in vivo
Procedure: U87MG.ΔEGFR cells (1×10^5) or 5×10^5 LN-Z308.ΔEGFR, A1207.ΔEGFR, U87MG, U87MG.DK, and U87MG.wtEGFR cells in 5 μl of PBS were implanted into the right corpus stratum of nude mice brains as described previously (Mishima et al. (2000) A peptide derived from the non-receptor binding region of urokinase plasminogen activator inhibits glioblastoma growth and angiogenesis in vivo in combination with cisplatin. Proc. Natl. Acad. Sci. U.S.A. 97, 8484-8489).

deglycosylated sEGFR = target: T4, deglycosylated sEGFR (Homo sapiens, UniProt P00533); assay: immunoblot of PNGase F treated sEGFR; format: binding
T4 construct: sEGFR is the recombinant extracellular domain (amino acids 1-621) of the wild-type EGFR; host or cells: CHO cells
Procedure: To determine if carbohydrate structures are directly involved in the mAb806 epitope, the recombinant sEGFR expressed in CHO cells was treated with PNGase F to remove N-linked glycosylation.

[4] = target: T5, EGFR from U87MG.wtEGFR and A431 cells (Homo sapiens, UniProt P00533); assay: immunoprecipitation and Endo H digestion; format: binding
T5 construct: expressed in transfected cells; host or cells: U87MG.wtEGFR (transfected with wtEGFR) and A431 (endogenous, amplified gene)
Procedure: This possibility was tested by immunoprecipitating the EGFR from different cells lines labelled overnight with ^35S methionine/cysteine and then subjecting the resultant precipitates to Endoglycosidase H (Endo H) digestion. This enzyme preferentially removes high mannose type carbohydrates (i.e. immature glycosylation) from proteins while leaving complex carbohydrates (i.e. mature glycosylation) intact.

[5] = target: T6, denatured soluble domain of the EGFR (sEGFR) (Homo sapiens, UniProt P00533); assay: competition ELISA; format: binding; conditions: after unlabeled blocking antibody
T6 construct: sEGFR is the recombinant extracellular domain (amino acids 1-621) of the wild-type EGFR; made in house; host or cells: CHO cells
Procedure: Briefly, the denatured soluble domain of the EGFR (sEGFR) was coated on to ELISA plates. The unlabeled 124 or 1133 antibodies were then added across the plate in increasing concentrations.

B1: mAb806: murine monoclonal antibody recognizing de2-7 EGFR and amplified EGFR; VH SEQ ID NO:2, VL SEQ ID NO:4 (antibody, listed as Mus musculus, V domains shown)
VH: MRVLILLWLFTAFPGVLSDVQLQESGPSLVKPSQSLSLTCTVTGYSITSDFAWNWIRQFPGNKLEWMGYISYSGNTRYNPSLKSRISITRDTSKNQFFLQLNSVTIEDTATYYCVTAGRGFPYWGQGTLVTVSA
VL: MVSTAQFLAFLLLWFPGARCDILMTQSPSSMSVSLGDTVSITCHSSQDINSNIGWLQQRPGKSFKGLIYHGTNLDDEVPSRFSGSGSGADYSLTISSLESEDFADYYCVQYAQFPWTFGGGTKLEIKR
binding to unique de2-7 EGFR peptide [1]: Neither mAb806 nor the 528 antibody bound to the peptide
binding to peptide on membranes (junction peptide): did not bind peptide
reactivity after immunoblotting (wtEGFR): bound to the wtEGFR
mean tumor volume (U87MG.wtEGFR xenografts): 468±78.38 mm^3 and 500±80 mm^3
reactivity (normal tissues; Skin): − occ. weak reactivity
reactivity (normal tissues; Tonsil): − occ. weak reactivity
positive tumors/tumors tested ([2]; Colonic carcinoma): 0/10
positive tumors/tumors tested ([2]; Head + neck cancer (sqcc)): 7/11
positive tumors/tumors tested ([2]; Leiomyosarcoma): 0/5
positive tumors/tumors tested ([2]; Liposarcoma): 0/5*
positive tumors/tumors tested ([2]; Lung (sqcc, adeno, neuroend)): 6/12
positive tumors/tumors tested ([2]; Malignant melanoma metastases): 0/10
positive tumors/tumors tested ([2]; Mammary gland): 1/10
staining grades of positive tumors ([2]; Mammary gland): (foc)
positive tumors/tumors tested ([2]; Mfh Malignant fibrous histiocytoma): 0/5*
positive tumors/tumors tested ([2]; Ovary (serous-papillary)): 0/5
positive tumors/tumors tested ([2]; Seminoma): 0/10
positive tumors/tumors tested ([2]; Synovial sarcoma): 0/5*
positive tumors/tumors tested ([2]; Urinary bladder (tcc, sqcc, adeno)): 3/10*
tumors with positive staining ([2]; head and neck tumors): 64%
tumors with positive staining ([2]; lung carcinomas): 50%
tumors with positive staining ([2]; urinary tumors): 30%
effect on survival [3]: did not extend survival
binding to deglycosylated sEGFR (deglycosylated sEGFR): clearly bound the deglycosylated material
Endo H sensitivity of precipitated EGFR [4]: sensitive to Endo H
Binding of biotin-labeled 806 [5]: None
